Broadly, the Kd is the concentration at which binding is half-saturated.

Experimental findings from US20250121104A1 (FUSION PHARMACEUTICALS, published 2025) are described below.

For assay [1], the target named is T1, EGFR and cMET co-expressed on the surface of tumour cell lines (HCC827, HT29, H441, H1975) (UniProt P00533 25-1210; P08581 25-1390).
T1 construct: whole, on cells; Target of the bispecific molecules on cells that carry both receptors; the cell line of each value stands under assay; also called EGFR and c-MET expressing cell line; EGFR and/or cMET expressing cell lines
In words: saturation radioligand binding on HCC827 cells, 4 C, specific binding (4 µM cold antibody for non-specific), single-site fit. The procedure: (§1) The purpose of this assay was to ensure that the radioimmunoconjugates maintained the binding characteristics of the native antibody in EGFR and/or cMET expressing cell lines including HT29, H441, HT29, HCC827, and H1975. One day prior to the experiment, cells (1.5-2×10⁵) were seeded in 48-well microplates in 500 μL supplemented medium. At the start of the assay, cells were washed with PBS once and then treated with increasing concentrations of Compound E (0.05 nM to 100 nM) in the absence and presence of 4 μM cold antibody [total binding (TB) and non-specific binding (NSB) respectively]. Plates were incubated at 4° C. for about 3 hours with mild shaking. Following incubation, the cells were washed twice with PBS and were then lysed with 1% Triton-X-100. The lysates were transferred to gamma counting tubes and run along with Compound E standards on the Wizard 1470 gamma counter to determine the amount of radioactivity in counts per minute (CPM) for each lysate. The remaining lysate from each well (25 μL) was used for analyzing the protein content using a standard protein quantification assay.

The target of assay [2] is T1, EGFR and cMET co-expressed on the …. In words: saturation radioligand binding on H1975 cells, 4 C, specific binding (4 µM cold antibody for non-specific), single-site fit. The procedure: as §1
For assay [3] the target is unchanged. In words: saturation radioligand binding on HT29 cells, 4 C, specific binding (4 µM cold antibody for non-specific), single-site fit. The procedure:
as §1

For assay [4] the target is unchanged. The experiment in a line: saturation radioligand binding on H441 cells, 4 C, specific binding (4 µM cold antibody for non-specific), single-site fit. The procedure:
as §1

For a further assay, the target named is T2, Semaphorin 3a (UniProt Q14563 21-771, limits assumed).
T2 sequence (looked up): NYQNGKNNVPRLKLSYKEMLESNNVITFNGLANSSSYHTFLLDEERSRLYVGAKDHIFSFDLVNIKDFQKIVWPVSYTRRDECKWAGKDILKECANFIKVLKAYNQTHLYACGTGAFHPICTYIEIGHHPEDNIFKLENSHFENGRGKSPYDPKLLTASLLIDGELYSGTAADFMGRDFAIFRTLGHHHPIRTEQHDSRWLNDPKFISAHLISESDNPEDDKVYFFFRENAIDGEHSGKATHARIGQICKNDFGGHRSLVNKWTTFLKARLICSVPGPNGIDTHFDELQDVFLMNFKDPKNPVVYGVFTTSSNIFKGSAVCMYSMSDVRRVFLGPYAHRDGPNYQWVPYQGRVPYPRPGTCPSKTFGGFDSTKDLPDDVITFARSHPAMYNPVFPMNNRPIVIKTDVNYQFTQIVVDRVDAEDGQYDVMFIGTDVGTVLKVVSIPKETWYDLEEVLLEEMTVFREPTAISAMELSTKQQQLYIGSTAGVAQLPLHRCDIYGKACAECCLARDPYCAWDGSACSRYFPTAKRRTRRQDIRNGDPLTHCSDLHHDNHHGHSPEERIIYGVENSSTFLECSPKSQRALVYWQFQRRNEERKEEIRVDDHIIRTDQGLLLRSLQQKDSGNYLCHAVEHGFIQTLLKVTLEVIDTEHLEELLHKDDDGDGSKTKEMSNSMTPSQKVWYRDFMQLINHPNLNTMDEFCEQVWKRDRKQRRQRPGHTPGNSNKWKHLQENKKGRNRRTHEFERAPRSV
In words: ELISA, antigen coated at 1 µg/mL, antibody titrated from 10 µg/mL. The procedure:
(§2) Specificity for EGFR and cMET species paralogs and closely related family members was determined by ELISA. Briefly, antigen solutions were prepared in PBS at 1 μg/mL and 50 microliters was coated onto half area ELISA assay plates. Plates were washed and blocked with 1% BSA in PBS containing 0.005% Tween-20 (PBS-T) for one hour at room temperature. […] Wells were incubated with 50 microliters of the indicated primary antibodies diluted in PBS-T in a 1:3 dilution series, starting at 10 μg/mL and ending at 0.002 μg/mL, except for the HER4 binding mAb control, MAB1131, for which the series started at 1 μg/mL. The wells were washed 4 times in PBS-T, then 50 μl of goat anti-human Fab HRP-labeled secondary antibody, diluted 1:5000 in PBS-T, was added to each well and incubated for one hour at room temperature. […] 50 microliters of TMB stop solution was added to all wells and the absorbance was read at 450 nm on a SpectraMax M5 microplate reader. Data were analyzed in the SoftMax Pro 5 software and plotted using GraphPad Prism 7 graphing software.
(§3) To determine the species cross reactivity, ELISA assays were carried out as described above.
(ELISA stands for enzyme-linked immunosorbent assay.)

A further assay addresses T3, Ron (CD136) (UniProt Q04912 25-957, limits assumed).
T3 sequence (looked up): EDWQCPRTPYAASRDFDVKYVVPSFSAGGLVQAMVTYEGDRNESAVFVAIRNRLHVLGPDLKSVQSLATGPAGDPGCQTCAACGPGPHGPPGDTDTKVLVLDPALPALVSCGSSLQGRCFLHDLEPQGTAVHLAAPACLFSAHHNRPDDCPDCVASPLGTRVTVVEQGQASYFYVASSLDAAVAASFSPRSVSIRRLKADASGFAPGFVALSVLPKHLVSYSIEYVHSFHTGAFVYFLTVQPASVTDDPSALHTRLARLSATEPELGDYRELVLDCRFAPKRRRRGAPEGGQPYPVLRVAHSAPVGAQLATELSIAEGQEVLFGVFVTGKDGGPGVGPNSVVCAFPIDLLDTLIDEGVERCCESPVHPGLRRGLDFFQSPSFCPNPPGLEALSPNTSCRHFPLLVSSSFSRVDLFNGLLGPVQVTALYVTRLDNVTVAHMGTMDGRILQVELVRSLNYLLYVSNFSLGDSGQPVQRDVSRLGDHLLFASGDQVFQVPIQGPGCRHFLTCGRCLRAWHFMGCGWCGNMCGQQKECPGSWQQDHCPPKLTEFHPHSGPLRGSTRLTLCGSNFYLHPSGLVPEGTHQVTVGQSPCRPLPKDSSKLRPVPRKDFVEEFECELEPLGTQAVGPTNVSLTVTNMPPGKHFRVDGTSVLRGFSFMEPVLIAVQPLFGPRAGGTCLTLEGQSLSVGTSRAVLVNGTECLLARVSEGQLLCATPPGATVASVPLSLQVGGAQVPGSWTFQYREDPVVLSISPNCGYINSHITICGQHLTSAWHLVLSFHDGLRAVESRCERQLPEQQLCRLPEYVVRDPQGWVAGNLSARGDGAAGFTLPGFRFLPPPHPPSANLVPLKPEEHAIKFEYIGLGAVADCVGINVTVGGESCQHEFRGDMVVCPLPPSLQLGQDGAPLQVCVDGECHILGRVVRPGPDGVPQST
The assay is described as above. The procedure:
as §2, §3

A further assay has as its target mouse cMET (recombinant) (mouse, UniProt P16056 25-929, limits assumed). The experiment in a line: SPR (BIAcore T200), antibody captured on anti-human IgG, soluble antigen as analyte.
Assay [5] has as its target T4, human cMET (recombinant, soluble monomeric) (human, UniProt P08581 25-932).
T4 construct: also called cMET antigen; His-tagged cMET antigen
The description is as above.

In assay [6] the target is T5, cynomolgus monkey cMET (recombinant, soluble monomeric) (cynomolgus monkey, UniProt A0M8R7 25-932 (Papio anubis entry)).
T5 construct: also called cyno cMET
The description is as above.

For assay [7], the target named is T6, human EGFR (recombinant, soluble monomeric) (human, UniProt P00533 25-645).
T6 construct: also called EGFR antigen
The description is as above.

The target of assay [8] is T7, cynomolgus monkey EGFR (recombinant, soluble monomeric) (cynomolgus monkey, UniProt P55245 25-645 (rhesus entry)).
T7 construct: also called cyno EGFR
The description is as above.

For the next assay, the target named is T8, mouse EGFR (recombinant) (mouse, UniProt Q01279 25-647).
T8 construct: also called murine EGFR
Described as above.

Chain of mouse cMET (recombinant) (P16056 25-929 limits assumed): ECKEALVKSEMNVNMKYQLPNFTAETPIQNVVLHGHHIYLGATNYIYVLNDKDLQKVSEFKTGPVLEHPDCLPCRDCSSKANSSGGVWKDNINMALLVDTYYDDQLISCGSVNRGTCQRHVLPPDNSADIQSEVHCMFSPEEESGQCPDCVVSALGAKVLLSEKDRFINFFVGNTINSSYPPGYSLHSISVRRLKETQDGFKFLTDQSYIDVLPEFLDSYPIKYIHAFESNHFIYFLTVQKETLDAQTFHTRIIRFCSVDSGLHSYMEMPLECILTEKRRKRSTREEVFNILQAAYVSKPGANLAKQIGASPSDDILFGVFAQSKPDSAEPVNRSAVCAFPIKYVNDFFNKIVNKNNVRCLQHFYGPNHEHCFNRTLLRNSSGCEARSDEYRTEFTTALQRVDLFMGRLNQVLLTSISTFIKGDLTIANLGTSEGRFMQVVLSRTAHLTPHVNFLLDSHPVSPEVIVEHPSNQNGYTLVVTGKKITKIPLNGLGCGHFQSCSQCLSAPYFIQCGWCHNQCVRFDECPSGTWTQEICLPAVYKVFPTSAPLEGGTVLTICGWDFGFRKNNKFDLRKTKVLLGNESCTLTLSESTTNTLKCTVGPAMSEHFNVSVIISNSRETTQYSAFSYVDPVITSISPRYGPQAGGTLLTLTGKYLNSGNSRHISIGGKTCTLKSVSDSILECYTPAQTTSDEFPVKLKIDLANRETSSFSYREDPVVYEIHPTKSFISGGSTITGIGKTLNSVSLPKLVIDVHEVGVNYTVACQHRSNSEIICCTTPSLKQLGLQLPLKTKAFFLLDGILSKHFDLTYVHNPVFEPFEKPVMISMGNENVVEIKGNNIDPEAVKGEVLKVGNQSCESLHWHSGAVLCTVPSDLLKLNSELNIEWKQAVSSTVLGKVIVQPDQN
T5 sequence (A0M8R7 25-932 S170N/I621T): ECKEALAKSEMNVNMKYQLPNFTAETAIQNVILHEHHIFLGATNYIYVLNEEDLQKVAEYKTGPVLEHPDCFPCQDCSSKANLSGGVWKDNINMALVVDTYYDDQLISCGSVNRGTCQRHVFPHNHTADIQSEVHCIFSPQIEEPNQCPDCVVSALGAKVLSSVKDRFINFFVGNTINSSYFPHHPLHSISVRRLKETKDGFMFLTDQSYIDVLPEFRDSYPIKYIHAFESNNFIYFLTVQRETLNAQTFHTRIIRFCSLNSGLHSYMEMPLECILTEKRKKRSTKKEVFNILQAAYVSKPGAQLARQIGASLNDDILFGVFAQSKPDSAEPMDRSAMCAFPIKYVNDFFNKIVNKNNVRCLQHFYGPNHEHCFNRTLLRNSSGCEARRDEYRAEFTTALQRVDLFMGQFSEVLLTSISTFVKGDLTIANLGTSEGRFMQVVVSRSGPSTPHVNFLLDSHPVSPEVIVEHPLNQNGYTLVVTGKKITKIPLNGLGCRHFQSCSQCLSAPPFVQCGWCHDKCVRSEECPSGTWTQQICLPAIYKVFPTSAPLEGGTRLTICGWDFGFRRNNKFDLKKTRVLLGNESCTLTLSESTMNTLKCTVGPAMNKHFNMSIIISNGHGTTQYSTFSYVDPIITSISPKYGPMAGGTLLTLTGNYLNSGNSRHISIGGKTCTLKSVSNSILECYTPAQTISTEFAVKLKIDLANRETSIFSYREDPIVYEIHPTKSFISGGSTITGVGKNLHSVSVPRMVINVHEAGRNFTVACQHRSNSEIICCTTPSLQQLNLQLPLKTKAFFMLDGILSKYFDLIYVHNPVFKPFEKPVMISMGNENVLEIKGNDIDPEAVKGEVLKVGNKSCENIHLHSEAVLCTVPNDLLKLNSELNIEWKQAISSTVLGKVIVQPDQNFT
T4 sequence (P08581 25-932): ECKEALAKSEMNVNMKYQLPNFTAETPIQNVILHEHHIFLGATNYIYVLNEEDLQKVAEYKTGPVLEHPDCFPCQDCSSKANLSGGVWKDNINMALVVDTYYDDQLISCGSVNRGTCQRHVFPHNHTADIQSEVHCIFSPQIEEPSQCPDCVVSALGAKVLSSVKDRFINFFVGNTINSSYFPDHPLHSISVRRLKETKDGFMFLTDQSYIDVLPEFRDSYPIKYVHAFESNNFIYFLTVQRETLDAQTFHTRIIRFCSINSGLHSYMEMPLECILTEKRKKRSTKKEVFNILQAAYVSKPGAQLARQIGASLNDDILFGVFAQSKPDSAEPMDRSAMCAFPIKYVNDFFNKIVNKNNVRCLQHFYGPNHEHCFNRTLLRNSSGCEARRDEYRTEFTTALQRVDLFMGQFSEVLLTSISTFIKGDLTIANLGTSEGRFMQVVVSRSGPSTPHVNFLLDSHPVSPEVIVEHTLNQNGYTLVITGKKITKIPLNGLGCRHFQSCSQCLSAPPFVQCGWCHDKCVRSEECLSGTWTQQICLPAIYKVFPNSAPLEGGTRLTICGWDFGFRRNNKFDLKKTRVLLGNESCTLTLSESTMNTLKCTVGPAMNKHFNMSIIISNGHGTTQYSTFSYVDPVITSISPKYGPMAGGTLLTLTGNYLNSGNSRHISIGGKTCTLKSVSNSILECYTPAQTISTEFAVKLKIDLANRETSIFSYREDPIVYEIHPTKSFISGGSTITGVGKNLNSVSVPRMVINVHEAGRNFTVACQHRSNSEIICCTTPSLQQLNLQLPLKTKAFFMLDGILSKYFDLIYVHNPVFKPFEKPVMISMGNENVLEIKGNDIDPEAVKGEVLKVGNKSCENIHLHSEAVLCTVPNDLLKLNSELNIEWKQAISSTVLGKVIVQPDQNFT

B1: Compound E, [177Lu]-Compound C-anti-EGFR-cMET conjugate (bispecific antibody, V domains shown)
VH 1: QVQLVQSGAEVKKPGSSVKVSCKASGGTFSDNDFSWVRQAPGQGLEWMGAIVAVFRTETYAQKFQDRVKITADISTRTTYMELSSLRSEDTAVYYCARRLMSAISGPGAPLLMWGQGTLVTVSS
VL 1: QSALTQPRSVSGSPGQSVTISCTGTSSDVGGYNYVSWYQQHPGKAPKLMIYDVSKRPSGVPDRFSGSKSGNTASLTISGLQAEDEADYYCSSYTSSDTLEIFGGGTKLTVL
VH 2: QVQLVQSGAEVKKPGASVKVSCKASGYTFTDYYIHWVRQATGQGLEWMGWMNPNSGNTGYAQKFQGRVTMTRDTSISTAYMELSSLRSEDTAVYYCARGQGYTHSWGQGTMVTVSS
VL 2: DIQMTQSPSTLSASVGDRVTITCRASEGIYHWLAWYQQKPGKAPKLLIYKASSLASGVPSRFSGSGSGTEFTLTISSLQPDDFATYYCQQYSNYPPTFGGGTKLEIK
modifications: 177Lu-DOTA chelate-linker (Compound C) on lysine side chains, sites not stated; 177Lu-DOTA chelate-linker (Compound C) on lysine side chains, sites not stated; chelate-to-antibody ratio 5.3 for the whole antibody
notes: also called [177Lu]-DOTA-anti-EGFR-cMET
Consider B1, for which the Kd in [1] was around 9.9 nM; in assay [2], around 6 nM; in assay [3], around 5.7 nM; in assay [4], around 15.5 nM.

B2: RAA22 IgG (antibody, V domains shown)
VH: QVQLVQSGAEVKKPGSSVKVSCKASGGTFSDNDFSWVRQAPGQGLEWMGAIVAVFRTETYAQKFQDRVKITADISTRTTYMELSSLRSEDTAVYYCARRLMSAISGPGAPLLMWGQGTLVTVSS
VL: QSALTQPRSVSGSPGQSVTISCTGTSSDVGGYNYVSWYQQHPGKAPKLMIYDVSKRPSGVPDRFSGSKSGNTASLTISGLQAEDEADYYCSSYTSSDTLEIFGGGTKLTVL
notes: also called anti-EGFR antibody clone RAA22
In the case of B2, the binding result with Semaphorin 3a was “no binding (tested: 10 µg/mL)”; with Ron (CD136), “no binding (tested: 10 µg/mL)”; in the assay with mouse cMET (recombinant), “no binding (tested: 200 nM)”; in assay [5], “no binding (tested: 200 nM)”; in assay [6] it was “no binding (tested: 200 nM)”.

B3: B09-57 IgG (antibody, V domains shown)
VH: QVQLVQSGAEVKKPGASVKVSCKASGYTFTDYYIHWVRQATGQGLEWMGWMNPNSGNTGYAQKFQGRVTMTRDTSISTAYMELSSLRSEDTAVYYCARGQGYTHSWGQGTMVTVSS
VL: DIQMTQSPSTLSASVGDRVTITCRASEGIYHWLAWYQQKPGKAPKLLIYKASSLASGVPSRFSGSGSGTEFTLTISSLQPDDFATYYCQQYSNYPPTFGGGTKLEIK
notes: also called B09-GL; anti-cMET antibody
For B3, the binding result with Semaphorin 3a is recorded as “no binding (tested: 10 µg/mL)”; with Ron (CD136), “no binding (tested: 10 µg/mL)”; in assay [7], “no binding (tested: 200 nM)”; with mouse cMET (recombinant), “no binding (tested: 200 nM)”; in [8], “no binding (tested: 200 nM)”; with mouse EGFR (recombinant), “no binding (tested: 200 nM)”.
